Laboratory results published in patent US20240018501A1, “HIGHER PERFORMANCE PROTEASES FOR SCARLESS PEPTIDE TAG REMOVAL” (priority 2017, published 2024).

Tests used:
[1] = system: CylA; assay: CylA proteolytic cleavage of leader peptides (MALDI-TOF MS); assay type: biochemical, Enterococcus faecalis
Procedure: Targeted peptides were dissolved in H2O to a final concentration of 3 mg/mL. To a 85 μL solution of peptides, 10 μL of 500 mM HEPES buffer (pH 7.5) was added followed by 5 μL of 0.5 mg/mL AspN protease (for modified CylLL and CylLS peptides), 0.1 mg/mL CylA protease (for modified and unmodified CylLL, CylLS peptides, and modified HalA2-GDVQAE peptide) or 0.1 mg/mL LicP protease (for LicA2). For cleavage tests of the engineered GDVQAE peptides, CylA was added to a final concentration of 0.01 mg/mL, whereas the peptide was added to a concentration of 0.3 mg/mL with 50 mM HEPES buffer (pH 7.5). The protease cleavage reaction mixtures were kept at 25° C. for 1 to 48 h. Osmotic pressure was adjusted with NaCl solution with a final concentration of 150 mM. The digested peptide mixture was directly used for antimicrobial and hemolytic assay. For the kinetic analysis of CylA and its mutant proteins, His6-CylA-27-412 and His6-CylA-27-412-E95A proteins were added to a final concentration of 500 ng/mL and 2.5 μg/mL (22 nM and 110 nM), respectively, with modified CylLS supplied at a concentration of 0.3 mg/mL (36 μM). The reactions were allowed to proceed at room temperature and were stopped by 1% TFA at different time points for LC/MS analysis. Halα and Halβ were obtained by factor Xa cleavage of modified HalA1Xa and HalA2 Xa peptides using the procedure of Y. Shi, et al. J. Am. Chem. Soc. […]

[2] = system: LicP; assay: LicP self-cleavage and intermolecular cleavage (SDS-PAGE, MALDI-TOF MS); assay type: biochemical, Bacillus licheniformis ATCC 14580
Procedure: Expression and purification of LicP and LicP mutant proteins. E. coli BL21 (DE3) cells were transformed with one of the following plasmids: pRSFDuet-1/LicP-25-433, pRSFDuet-1/LicP-25-433-S376A, pRSFDuet-1/LicP-25-433-H186A, pRSFDuet-1/LicP-25-433-E100A or pRSFDuet-1/LicP-25-433-E100A-E102A, and plated on an LB plate containing 50 mg/L kanamycin. A single colony was picked and grown in 20 mL of LB containing 50 mg/L kanamycin at 37° C. for 12 h and the resulting culture was inoculated into 2 L of LB containing 50 mg/L kanamycin. Cells were cultured at 37° C. until the OD at 600 nm reached 0.5, cooled and IPTG was added to a final concentration of 0.1 mM. The cells were cultured at 18° C. for another 10 h before harvesting. The cell pellet was resuspended on ice in LanP buffer (20 mM HEPES, 1 M NaCl, pH 7.5 at 25° C.) and lysed by homogenization. The lysed sample was centrifuged at 23,700×g for 30 min and the pellet was discarded. […] Protein concentration was quantified by the absorbance at 280 nm. The extinction coefficient for His6-LicP-25-433 was calculated as 46,300 M^−1 cm^−1. […]
Intermolecular cleavage of His6-LicP-25-433-S376A by His6-LicP-25-433. […] The three reactions were allowed to proceed at room temperature for 0, 2, 4, 7 and 19 h before being stopped by addition of SDS loading buffer and boiling at 95° C. for 10 min and analyzed by SDS-PAGE.

[3] = target: NisA-NDVNPE-I1C, P13068
[4] = target: LicA2-E-1Q
[5] = target: MBP-BamL
[6] = target: Linear LicA2
[7] = target: NisA-NDVNPE-I1K, P13068
[8] = target: Modified LicA2
[9] = target: LicA2-V-4L
[10] = target: DVNPE-Licβ
[11] = target: LicA2-D-5A
[12] = target: NisA-NDVNPE-I1W, P13068
[13] = target: LicA2-V-4A
[14] = target: LicA2-E-1D
[15] = target: LicA2-P-2A
[16] = target: NisA-NDVNPE, P13068
[17] = target: NisA-NDVNPE-I1E, P13068
[18] = target: NisA-NDVNPE-I1G, P13068
[19] = target: NisA-NDVNPE-I1L, P13068
[20] = target: NisA-NDVNPE-I1T, P13068
[21] = target: NisA-NDVNPE-I1F, P13068
[22] = target: ProcA1.7-NDVNPE
[23] = target: His6-LicP-25-433-S376A
[24] = target: LicA2-V-4F
[25] = target: linear G-LicA2
[26] = target: LicA2-E-1A
[27] = target: LicA2-D-5K
[28] = target: LicA2-N-3A
[29] = Storage and freeze-thaw stability of the proteases; assay type: physicochemical

Chain of NisA-NDVNPE-I1W, P13068 (P13068 whole entry, looked up): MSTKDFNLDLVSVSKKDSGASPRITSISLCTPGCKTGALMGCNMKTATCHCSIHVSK
Chain of NisA-NDVNPE-I1E, P13068 (P13068 whole entry, looked up): as above
Chain of NisA-NDVNPE-I1L, P13068 (P13068 whole entry, looked up): as above
Chain of NisA-NDVNPE-I1G, P13068 (P13068 whole entry, looked up): as above
Chain of NisA-NDVNPE-I1F, P13068 (P13068 whole entry, looked up): as above
Chain of NisA-NDVNPE, P13068 (P13068 whole entry, looked up): as above
Chain of NisA-NDVNPE-I1T, P13068 (P13068 whole entry, looked up): as above
Chain of NisA-NDVNPE-I1K, P13068 (P13068 whole entry, looked up): as above
Chain of NisA-NDVNPE-I1C, P13068 (P13068 whole entry, looked up): as above

His6-NisA-GDVQAE: linear NisA with engineered GDVQAE recognition sequence
leader peptide removal / cleavage by CylA [1]: successfully removed

B1: His6-LicP-25-433 (protein)
chain: GSSHHHHHHSQDPKEQAGEQYLLLEHVKDKSKLLDTAEQFHIHADVIEEIGFAKVTGEKQKLAPFTKKLAEKVGADVIEKPIANTAVNETESVISGSPAWGLDGILELKEYLWFAAKQTDSYRTYQIERGHPDVKVALIDSGLDLDHPDLKASVNTNGGWNYIDGKPVSGDPTGHGTQTAGMINIIAPDVTITPYQVLDEKGGDSYNIMKAMVDAVNDGHEVINISTGSYTSLDREGKVLMKAYQRAANYAAKHQVLVFSSAGNKGVNLDEMRKTENKVHLPSALKHVVSVGSNMKSNNISPYSNQGREIEFTAPGGYLGETYDQDGMVRVTDLVLTTYPKGKDNTALDQMLNIPKGYSLSYGTSLAAPQVAGTAALVISEYRERHHRKPSAKQVHHILRKSALDLGKPGKDVIYGYGEVRAYQALKMMNKE
LicP self-cleavage during expression [2]: a cleavage event occurred
Complete Reaction? (LicP cleavage; [LicP] 0.2 µM, [Substrate] 65 µM, 20 h at RT) [3]: Y
removal of the NisA leader peptide by LicP, MALDI-TOF MS [3]: The highest proteolytic efficiency was obtained when the P1′ position was occupied by Thr or Cys
time-dependent cleavage by LicP, gel-based assay (100 µM peptide, 0.4 µM LicP) [4]: even substitution with structurally related amino acids Asp and Gln was not tolerated
Complete Reaction? (LicP cleavage; [LicP] 0.5 µM, [Substrate] 50 µM, 12 h at 4 C) [5]: Y
removal of the MBP tag, SDS-PAGE time course, against TEV protease [5]: LicP was capable of removing the MBP-tag in front of the BamL protein with similar efficiency as TEV
Complete Reaction? (LicP cleavage; [LicP] 1 µM, [Substrate] 290 µM, 6 h at RT) [6]: Y
Complete Reaction? (LicP cleavage; [LicP] 2 µM, [Substrate] 65 µM, 30 h at RT) [7]: N
removal of the NisA leader peptide by LicP, MALDI-TOF MS [7]: also accepted by LicP, although some substrate still remained after 30 hours of incubation
Complete Reaction? (LicP cleavage; [LicP] 21 nM, [Substrate] 17 µM, 10 min at RT) [8]: Y
rate of cleavage in a competitive MALDI-TOF MS assay (21 nM LicP, 17 µM each of modified LicA2 and linear G-LicA2) [8]: complete consumption of modified LicA2 peptide within 10 min, corresponding to a rate of at least 80 min^-1
time-dependent cleavage by LicP, gel-based assay (100 µM peptide, 0.4 µM LicP) [9]: still accepted by LicP with a slightly reduced cleavage efficiency
cleavage by LicP, MALDI-TOF MS [10]: the 5-residue oligopeptide was successfully removed
time-dependent cleavage by LicP, gel-based assay (100 µM peptide, 0.4 µM LicP) [11]: LicA2-D-5A and LicA2-D-5K are processed much more slowly
Complete Reaction? (LicP cleavage; [LicP] 2 µM, [Substrate] 65 µM, 30 h at RT) [12]: N
removal of the NisA leader peptide by LicP, MALDI-TOF MS [12]: also accepted by LicP, although some substrate still remained after 30 hours of incubation
time-dependent cleavage by LicP, gel-based assay (100 µM peptide, 0.4 µM LicP) [13]: still accepted by LicP with a slightly reduced cleavage efficiency
time-dependent cleavage by LicP, gel-based assay (100 µM peptide, 0.4 µM LicP) [14]: even substitution with structurally related amino acids Asp and Gln was not tolerated
time-dependent cleavage by LicP, gel-based assay (100 µM peptide, 0.4 µM LicP) [15]: alanine substitution at both sites did not alter the processing efficiency of LicP significantly
Complete Reaction? (LicP cleavage; [LicP] 2 µM, [Substrate] 65 µM, 30 h at RT) [16]: Y
removal of the NisA leader peptide by LicP, MALDI-TOF MS [16]: in front of a Gly or Ile residue was slightly less efficient, but complete consumption of precursor peptides was still observed
Complete Reaction? (LicP cleavage; [LicP] 2 µM, [Substrate] 65 µM, 30 h at RT) [17]: N
removal of the NisA leader peptide by LicP, MALDI-TOF MS [17]: Peptides with Glu or Phe in the P1′ position turned out to be poor substrates
Complete Reaction? (LicP cleavage; [LicP] 2 µM, [Substrate] 65 µM, 30 h at RT) [18]: Y
removal of the NisA leader peptide by LicP, MALDI-TOF MS [18]: in front of a Gly or Ile residue was slightly less efficient, but complete consumption of precursor peptides was still observed
Complete Reaction? (LicP cleavage; [LicP] 2 µM, [Substrate] 65 µM, 30 h at RT) [19]: N
removal of the NisA leader peptide by LicP, MALDI-TOF MS [19]: also accepted by LicP, although some substrate still remained after 30 hours of incubation
Complete Reaction? (LicP cleavage; [LicP] 0.2 µM, [Substrate] 65 µM, 20 h at RT) [20]: Y
removal of the NisA leader peptide by LicP, MALDI-TOF MS [20]: The highest proteolytic efficiency was obtained when the P1′ position was occupied by Thr or Cys
Complete Reaction? (LicP cleavage; [LicP] 2 µM, [Substrate] 65 µM, 30 h at RT) [21]: N
removal of the NisA leader peptide by LicP, MALDI-TOF MS [21]: Peptides with Glu or Phe in the P1′ position turned out to be poor substrates
Complete Reaction? (LicP cleavage; [LicP] 0.2 µM, [Substrate] 180 µM, 4 h at RT) [22]: Y
intermolecular cleavage of the S376A mutant by wild type LicP, SDS-PAGE, 1:1, 0.1 mg/mL each [23]: autoprotolysis can take place intermolecularly, albeit slowly
time-dependent cleavage by LicP, gel-based assay (100 µM peptide, 0.4 µM LicP) [24]: LicA2-V-4F was no longer processed
competitive MALDI-TOF MS assay (21 nM LicP, 17 µM each of modified LicA2 and linear G-LicA2) [25]: the cleavage of linear LicA2 only started after the modified LicA2 had been consumed and required more enzyme to be completed
time-dependent cleavage by LicP, gel-based assay (100 µM peptide, 0.4 µM LicP) [26]: LicA2-E-1A was not a substrate under the assay conditions
time-dependent cleavage by LicP, gel-based assay (100 µM peptide, 0.4 µM LicP) [27]: LicA2-D-5A and LicA2-D-5K are processed much more slowly
time-dependent cleavage by LicP, gel-based assay (100 µM peptide, 0.4 µM LicP) [28]: alanine substitution at both sites did not alter the processing efficiency of LicP significantly
activity after multiple rounds of freeze-thaw [29]: no obvious decrease in activity
activity after storage ([29]; 12 weeks at 4° C): persistent activity
